Measurements: paper PMC9355967 (Nature Communications, 2022)

How the values were obtained:
[1] = biological target: T1, purified AFDN FHA domain, C-terminally extended (371-580) (mouse, UniProt Q9QZQ1 371-580); experiment: ITC; MicroCal ITC200, 25 °C, 20 mM Tris-HCl pH 7.5, 150 mM NaCl, 1 mM DTT; conditions: both partners purified
T1 construct: 15N-labelled in one NMR experiment; GST probably cut off with thrombin; also called extended FHA domain; source: E. coli BL21, purified (glutathione resin, thrombin cleavage or glutathione elution, SEC)
T1 sequence (looked up): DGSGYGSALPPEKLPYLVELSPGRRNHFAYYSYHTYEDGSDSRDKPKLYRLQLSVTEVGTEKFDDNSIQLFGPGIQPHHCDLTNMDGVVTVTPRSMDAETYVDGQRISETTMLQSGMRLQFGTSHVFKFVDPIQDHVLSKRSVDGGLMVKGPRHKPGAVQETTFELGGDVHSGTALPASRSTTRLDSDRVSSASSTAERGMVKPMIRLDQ

[2] = biological target: T1, purified AFDN FHA domain, C-terminally …; experiment: ITC; MicroCal ITC200, 25 °C, 20 mM Tris-HCl pH 7.5, 20 mM NaCl, 1 mM DTT; conditions: both partners purified

B1: purified SCRIB PDZ1 domain (718-820) (domain or fragment)
chain: not shown
notes: 15N-labelled in one NMR experiment; GST probably cut off with thrombin (it was mixed with GST fusions on glutathione beads); source: E. coli BL21, purified (glutathione resin, thrombin cleavage or glutathione elution, SEC)
[1]
  Kd: 14.8 µM
[2]
  Kd: 5.7 µM
